Measured values from article PMC4759581, “A DNA aptamer recognising a malaria protein biomarker can function as part of a DNA origami assembly”.

How the values were obtained:
Settings in all cases: protein: recombinant; chain copies: 4; hairpin
[1] = target: T1, Plasmodium falciparum lactate dehydrogenase (PfLDH) (Plasmodium falciparum, UniProt Q71T02 1-316); test: EMSA; 4 C; Fig. S15 panel assignment of 606/355 unclear; EMSA: 25 nM strand, 0-2500 nM PfLDH (tetramer concentration in legends; text says Kd per subunit), 25 mM Tris-HCl pH 7.5, 100 mM NaCl, 20 mM imidazole, 25 C 1 h
[2] = target: T1, Plasmodium falciparum lactate …; test: EMSA; 4 C; EMSA: 25 nM strand, 0-2500 nM PfLDH (tetramer concentration in legends; text says Kd per subunit), 25 mM Tris-HCl pH 7.5, 100 mM NaCl, 20 mM imidazole, 25 C 1 h
[3] = target: T1, Plasmodium falciparum lactate …; test: EMSA; apparent, 1:1 fit; EMSA: 25 nM strand, 0-2500 nM PfLDH (tetramer concentration in legends; text says Kd per subunit), 25 mM Tris-HCl pH 7.5, 100 mM NaCl, 20 mM imidazole, 25 C 1 h

Row | Binder | Kd [3] [nM] | further results
1 | aptamer-staple 211 Edge (ssDNA) DNA: GCTAAATCTTTTCTGTAGCTCAACATGTATTGCTGACTGGGCGGTAGAACCATAGTGACCCAG | – | Kd [1]: 355 ± 73 nM
2 | aptamer-staple 87 Middle (ssDNA) DNA: TCATTACCCGACAATACTGGGCGGTAGAACCATAGTGACCCAGAACAACATATTTAGGC | – | Kd [2]: 1720 ± 244 nM
3 | aptamer staple 81 (ssDNA) DNA: CCGGAAACACACCACGGAATAAGTAAGACTCCTTTTTTTTTTTTTTTTTTTTCTGGGCGGTAGAACCATAGTGACCCAGCCGTCTAC | 970 ± 254 | –
4 | aptamer staple 87 (ssDNA) DNA: TCATTACCCGACAATAAACAACATATTTAGGCTTTTTTTTTTTTTTTTTTTTCTGGGCGGTAGAACCATAGTGACCCAGCCGTCTAC | 878 ± 154 | –
5 | aptamer staple 79 (ssDNA) DNA: TGAGGCAGGCGTCAGACTGTAGCGTAGCAAGGTTTTTTTTTTTTTTTTTTTTCTGGGCGGTAGAACCATAGTGACCCAGCCGTCTAC | 826 ± 300 | –
6 | aptamer staple 95 (ssDNA) DNA: CGGAATTATTGAAAGGAATTGAGGTGAAAAATTTTTTTTTTTTTTTTTTTTTCTGGGCGGTAGAACCATAGTGACCCAGCCGTCTAC | 846 ± 161 | –
7 | aptamer staple 97 (ssDNA) DNA: CTAAAGCAAGATAGAACCCTTCTGAATCGTCTTTTTTTTTTTTTTTTTTTTTCTGGGCGGTAGAACCATAGTGACCCAGCCGTCTAC | 760 ± 126 | –
8 | aptamer-staple 111 Edge (ssDNA) DNA: AAACCCTCTTTTACCAGTAATAAAAGGGATTCACCAGTCACACGTTTTCTGGGCGGTAGAACCATAGTGACCCAG | – | Kd [1]: 606 ± 164 nM
9 | aptamer staple 91 (ssDNA) DNA: TATGTAAACCTTTTTTAATGGAAAAATTACCTTTTTTTTTTTTTTTTTTTTTCTGGGCGGTAGAACCATAGTGACCCAGCCGTCTAC | 984 ± 177 | –
10 | aptamer staple 83 (ssDNA) DNA: TTATTACGGTCAGAGGGTAATTGAATAGCAGCTTTTTTTTTTTTTTTTTTTTCTGGGCGGTAGAACCATAGTGACCCAGCCGTCTAC | 1090 ± 183 | –
11 | aptamer staple 93 (ssDNA) DNA: GAGCAAAAACTTCTGAATAATGGAAGAAGGAGTTTTTTTTTTTTTTTTTTTTCTGGGCGGTAGAACCATAGTGACCCAGCCGTCTAC | 647 ± 128 | –
12 | aptamer staple 77 (ssDNA) DNA: TGCTCAGTCAGTCTCTGAATTTACCAGGAGGTTTTTTTTTTTTTTTTTTTTTCTGGGCGGTAGAACCATAGTGACCCAGCCGTCTAC | 726 ± 186 | –
13 | aptamer staple 85 (ssDNA) DNA: CTTTACAGTTAGCGAACCTCCCGACGTAGGAATTTTTTTTTTTTTTTTTTTTCTGGGCGGTAGAACCATAGTGACCCAGCCGTCTAC | 713 ± 161 | –
14 | aptamer-staple 11 Edge (ssDNA) DNA: CCTAATTTACGCTAACGAGCGTCTAATCAATACTGGGCGGTAGAACCATAGTGACCCAG | – | Kd [2]: 596 ± 107 nM
15 | aptamer-staple 121 Middle (ssDNA) DNA: TTTCATTTGGTCAATACTGGGCGGTAGAACCATAGTGACCCAGACCTGTTTATATCGCG | – | binding result [2]: no binding
16 | aptamer staple 76 (ssDNA) DNA: TATCACCGTACTCAGGAGGTTTAGCGGGGTTTTTTTTTTTTTTTTTTTTTTTCTGGGCGGTAGAACCATAGTGACCCAGCCGTCTAC | 965 ± 265 | –
17 | aptamer staple 89 (ssDNA) DNA: AGAGGCATAATTTCATCTTCTGACTATAACTATTTTTTTTTTTTTTTTTTTTCTGGGCGGTAGAACCATAGTGACCCAGCCGTCTAC | 750 ± 95 | –
